Results on six molecules are retold here after PMC5662663 (Scientific Reports, 2017).

The target in test [1] is Fluorescein-labeled variant of BtuF (BtuF_(fluo)) (Escherichia coli) (UniProt P37028). Description: other fluorescence titration; equilibrium competition in solution: 5 nM BtuF_(fluo), Cbl 0.3 nM to 10 μM at a constant nanobody concentration (5 μM Nb14; 1 μM Nb7, Nb15, Nb17; 100 nM Nb9, Nb10); 50 mM Tris-HCl pH 7.5, 200 mM NaCl, 0.001% Tween 20, 23 °C; Ki fitted with Dynafit with Kd of Cbl 8.1 nM as input.

For test [2] the target is unchanged. Put plainly: fluorescence kinetics of nanobody displacement by Cbl; 10 nM BtuF_(fluo) equilibrated with 10 nM nanobody, then 1, 5 or 10 μM Cbl; slow phase of fluorescence decrease at 520 nm gives koff; kon calculated as koff/Ki; 50 mM Tris-HCl pH 7.5, 200 mM NaCl, 0.001% Tween 20, 23 °C.
In test [3] the target is T1, BtuF, periplasmic substrate-binding protein of the Escherichia coli vitamin B12 transporter BtuCD-F, tag-less (Escherichia coli (K12 sequence), UniProt P37028).
T1 construct: the assays name the protein tag-less; also called tag-less BtuF; tagless BtuF; source: prepared as described previously [6,18], purified; not shown: His-tag (3C cleavable), C-terminal, cleaved
Put plainly: pull-down; His-tagged nanobodies immobilized on Ni-NTA, 1.5 molar excess of tagless BtuF, 1.5 hours at 4 °C; wash 50 mM Tris-HCl pH 7.5, 250 mM NaCl, 10% glycerol, 20 mM imidazole; elution 500 mM imidazole; SDS-PAGE; no Cbl. Particulars: both partners purified.

B1: Nanobody Nb7 (VHH)
VHH: QGQLVESGGGLVQPGGSLRLSCVASGFDFSNYTMSWVRQAPGKGLEWVSDISSGGGSTYYADSVKGRFTISRDNAKNTVYLQMNTLKPEDTAVYLCTELGVAPPGQGTRVTVSS
notes: Alpaca nanobody selected by phage display against BtuF; source: E. coli WK6, periplasmic extract, purified (IMAC, PD10 desalting)
The molecule B1 displayed a Ki in test [1] of 24 nM. In addition, in test [2], the koff was 0.0019 s⁻¹, the kon was 79000 M⁻¹ s⁻¹ and the occupancy of BtuF (fluo) with nanobody (10 nM each) was 30%. Further, in test [3], the binding result is “binds”.

B2: Nanobody Nb10 (VHH)
VHH: QLQLVESGGGLVQPGGSLRLSCAASGFTLDYYAIGWFRQAPGKEREGVSCISSSGGSTNYADSVKGRFTISRDNAKNTVYLQMNSLKPEDTAVYYCAADYAGRGFCAGLYDYWSQGTPVTVSS
In the case of B2, the Ki in test [1] stood at 6 nM. Besides, in test [2], the koff is 0.0071 s⁻¹, the kon is 1.2e+06 M⁻¹ s⁻¹ and the occupancy of BtuF (fluo) with nanobody (10 nM each) is 53%.

B3: Nanobody Nb15 (VHH)
VHH: QVQLVESGGGLVQPGGSLRLSCTASEATLDDYAIGWFRQAPGKEREGVSCIGSSGDVTHYADSVKGRFTISRDNAKNTGYLQLNNLRPEDTAVYYCAAAHRILGGCLVIHSSDYTSSSKGTRVTVSS
notes: as for B1
For the molecule B3, the Ki in test [1] came out at 79 nM. For the same molecule, the binding result in test [3] is “binds”.

B4: Nanobody Nb14 (VHH)
VHH: QLQLVESGGGLVQPGGSLRLSCAASGFTFSSVAMSWVRQAPGKGLEWVSDINSVGSTYYADSVKGRFTISRDNAKNTVYLQMNSLKPEDTAVYYCVPLGERPEIHGGKGTPVTVSS
With B4, the Ki in test [1] turned out to be 770 nM. This counts as sub-micromolar.

B5: Nanobody Nb17 (VHH)
VHH: QRQLVESGGGLVQAGGSLRLSCAASGRTFSSYVMGWFRQAPGKEREAVASISWSGGSTYYADSVKGRFTISRDNAKNTVYLQMNSLKPEDTAVYYCAADHRTYYTGTYSPDYWGKGTPVTVSS
notes: as for B1
B5 registered an inhibition constant Ki in test [1] of 54 nM. Besides, in test [2], the koff is 0.0025 s⁻¹, the kon is 46000 M⁻¹ s⁻¹ and the occupancy of BtuF (fluo) with nanobody (10 nM each) was 14%. Further, the binding result in test [3] is recorded as “binds”.

B6: Nanobody Nb9 (VHH)
VHH: QMQLVESGGGLVQPGGSLRLSCAAPESTLDDYAIGWFRQAPGKEREGVSCIGSSGDSTNYADSVKGRFTVSRDNAKNTVYLQMNDLRPEDTAVYYCAAAHRIFGGCLVIHSSGYVSWGQGTPVTVSS
notes: Alpaca nanobody selected by phage display against BtuF; additional disulfide bond between C72 (CDR2) and C128 (CDR3); source: E. coli WK6, periplasmic extract, purified (IMAC, PD10 desalting)
Turning to B6, the binding result in test [3] is reported as “binds”.

By Ki is commonly meant a measure of affinity in units of concentration, obtained from inhibition or displacement. A lower Ki goes with a stronger hold on the target. In general, koff refers to a measure of how fast the partners let go of each other. By kon is commonly meant a measure of how fast the partners come together.
